{"source": "patent US20090162336A1", "key": {"[1]": {"target": "taxol-stabilized microtubules made from PC tubulin", "assay": "microtubule pelleting assay, gel densitometry, 30 µM polymerized tubulin"}, "[2]": {"target": "taxol-stabilized microtubules made from PC tubulin", "assay": "microtubule pelleting assay, after 35 kDal kinase"}, "[3]": {"target": "taxol-stabilized microtubules made from PC tubulin", "assay": "microtubule pelleting assay, after 35 kDal kinase, against unphosphorylated htau23"}, "[4]": {"target": "taxol-stabilized microtubules made from PC tubulin", "assay": "microtubule pelleting assay, microtubules from 10 µM tubulin with 20 µM taxol"}, "[5]": {"target": "taxol-stabilized microtubules made from PC tubulin", "assay": "microtubule pelleting assay, brain extract phosphorylation"}, "[6]": {"target": "taxol-stabilized microtubules made from PC tubulin", "assay": "microtubule pelleting assay"}}}
{"substance": "bacterially expressed human tau isoform htau34, unphosphorylated (from UniProt P10636 1-412)", "values": [{"measurement": "Kd", "setting": "[1]", "value": "1 to 2", "unit": "µM"}]}
{"substance": "htau23 phosphorylated by the 35 kDal kinase (from UniProt P10636 1-352)", "values": [{"measurement": "Kd", "setting": "[2]", "value": 8.8, "unit": "µM"}, {"measurement": "stoichiometry n (tau/tubulin dimer) (tau/tubulin dimer)", "setting": "[2]", "value": 0.21}, {"measurement": "reduction in stoichiometry upon phosphorylation (Dn) (tau/tubulin dimer)", "setting": "[3]", "value": 0.28}]}
{"substance": "htau23 phosphorylated with GSK3 (from UniProt P10636 1-352)", "values": [{"measurement": "stoichiometry at saturation (tau per tubulin dimer) (per tubulin dimer)", "setting": "[4]", "value": 0.6}]}
{"substance": "htau23 mutant Ser262-Ala phosphorylated by the 35 kDal kinase (from UniProt P10636 1-352)", "values": [{"measurement": "Kd", "setting": "[2]", "value": 11.6, "unit": "µM"}, {"measurement": "stoichiometry n (tau/tubulin dimer) (tau/tubulin dimer)", "setting": "[2]", "value": 0.44}, {"measurement": "reduction in stoichiometry upon phosphorylation (Dn) (tau/tubulin dimer)", "setting": "[3]", "value": 0.05}]}
{"substance": "htau23 phosphorylated with the brain extract kinase activity (full, stage 3, 24 hours) (from UniProt P10636 1-352)", "values": [{"measurement": "Kd", "setting": "[1]", "value": 4.9, "unit": "µM"}, {"measurement": "stoichiometry n (tau/tubulin dimer) (tau/tubulin dimer)", "setting": "[1]", "value": 0.16}, {"measurement": "Dn (difference in stoichiometry upon phosphorylation) (tau/tubulin dimer)", "setting": "[5]", "value": 0.33}]}
{"substance": "htau34 phosphorylated for 90 min with the brain extract kinase activity (stage 1) (from UniProt P10636 1-412)", "values": [{"measurement": "fold decrease in stoichiometry upon phosphorylation", "setting": "[6]", "value": 3, "unit": "fold"}]}
{"substance": "htau34 phosphorylated with the brain extract kinase activity (24 hours) (from UniProt P10636 1-412)", "values": [{"measurement": "fold reduction in binding capacity against unphosphorylated htau34", "setting": "[6]", "value": 3, "unit": "fold"}]}
{"substance": "S404-A mutant of htau34 after 90 min of phosphorylation with the brain extract kinase activity (from UniProt P10636 1-412)", "values": [{"measurement": "fold decrease in stoichiometry upon phosphorylation", "setting": "[6]", "value": 2, "unit": "fold"}]}
{"substance": "htau23 mutant Ser262-Ala phosphorylated with brain extract (from UniProt P10636 1-352)", "values": [{"measurement": "Kd", "setting": "[1]", "value": 5.3, "unit": "µM"}, {"measurement": "stoichiometry n (tau/tubulin dimer) (tau/tubulin dimer)", "setting": "[1]", "value": 0.45}, {"measurement": "Dn (difference in stoichiometry upon phosphorylation) (tau/tubulin dimer)", "setting": "[5]", "value": 0.04}]}
